Test results: patent US20160200789A1, “IL4 CONJUGATED TO ANTIBODIES AGAINST EXTRACELLULAR MATRIX COMPONENTS” (PHILOGEN S.P.A., priority 2013, published 2016)

B1: muTNFR-Fc: extracellular part of the murine p75-TNF receptor appended at the N-terminus of a murine IgG1 Fc portion; murine version of Enbrel (protein)
chain: VPAQVVLTPYKPEPGYECQISQEYYDRKAQMCCAKCPPGQYVKHFCNKTSDTVCADCEASMYTQVWNQFRTCLSCSSSCTTDQVEIRACTKQQNRVCACEAGRYCALKTHSGSCRQCMRLSKCGPGFGVASSRAPNGNVLCKACAPGTFSDTTSSTDVCRPHRICSILAIPGNASTDAVCAPESPTLSAIPRTLYVSQPEPTRSQPLDQEPGPSQTPSILTSLGSTPIIEQSTKGGVPRDCGCKPCICTVPEVSSVFIFPPKPKDVLTITLTPKVTCVVVDISKDDPEVQFSWFVDDVEVHTAQTKPREEQFNSTFRSVSELPIMHQDWLNGKEFKCRVNSAAFPAPIEKTISKTKGRPKAPQVYTIPPPKEQMAKDKVSLTCMITDFFPEDITVEWQWNGQPAENYKNTQPIMDTDGSYFVYSKLNVQKSNWEAGNTFTCSVLHEGLHNHHTEKSLSHSPGK
B2: SIP (F8): antibody F8 in SIP format (scFv fused to epsilon-CH4 domain of human IgE) (protein)
chain: EVQLLESGGGLVQPGGSLRLSCAASGFTFSLFTMSWVRQAPGKGLEWVSAISGSGGSTYYADSVKGRFTISRDNSKNTLYLQMNSLRAEDTAVYYCAKSTHLYLFDYWGQGTLVTVSSGGGGSGGGGSGGGGEIVLTQSPGTLSLSPGERATLSCRASQSVSMPFLAWYQQKPGQAPRLLIYGASSRATGIPDRFSGSGSGTDFTLTISRLEPEDFAVYYCQQMRGRPPTFGQGTKVEIKSGGSGGPRAAPEVYAFATPEWPGSRDKRTLACLIQNFMPEDISVQWLHNEVQLPDARHSTTQPRKTKGSGFFVFSRLEVTRAEWEQKDEFICRAVHEAASPSQTVQRAVSVNPESSRRGGC

Tests used:
TNF = target: T1, TNF (Homo sapiens, UniProt P01375); experiment: Inhibition of TNF-mediated killing of LM fibroblasts; assay type: cell-based, mouse
T1 construct: host or cells: LM fibroblasts (mouse) as indicator cells
T1 sequence (P01375 77-233 limits assumed, species assumed): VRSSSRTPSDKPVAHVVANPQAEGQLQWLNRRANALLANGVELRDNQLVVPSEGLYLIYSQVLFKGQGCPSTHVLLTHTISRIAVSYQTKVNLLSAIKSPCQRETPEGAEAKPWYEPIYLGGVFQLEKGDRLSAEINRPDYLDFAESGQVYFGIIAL
From the text: The murine fusion protein muTNFR-Fc (extracellular part of the murine p75-TNF receptor appended at the N-terminus of a murine IgG1 Fc portion, containing the hinge region) was expressed by stable transfection in CHO cells, according to the supplier's protocol. The fusion protein was purified from the culture supernatant by protein A chromatography, yielding a preparation which was pure in SDS-PAGE analysis and size exclusion chromatography (see FIGS. 2A and B). The biological activity of muTNFR-Fc was tested by inhibition of TNF-mediated killing of LM fibroblasts (see FIG. 2C). TNF inhibitors such as Enbrel™ and Humeira™ represent the standard of care in rheumatoid arthritis patients. muTNFR-Fc is a murine version of a TNF inhibitor for use in mouse models of the disease.

[1] = tested on: imiquimod (IMQ)-induced ear inflammation in C57BL/6 mice; experiment: IMQ-induced inflammation model of psoriasis; assay type: in vivo, mouse; conditions: day 13
Procedure: C57BL/6 mice (Charles River, Germany) were treated on each side of each ear with 5 mg Aldara cream (containing 0.25 mg Imiquimod). The treatment schedule is illustrated in FIG. 11A. The Aldara cream was applied every day for 5 days (on day 1, 2, 3, 4 5 and […]: each application is illustrated by an asterisk in FIG. 11A). Ear thickness was measured with a caliper before the application of the cream. […] Treatment was repeated on day 9 and 11 (each treatment event is illustrated by an arrow in FIG. 11A).

[2] = tested on: CHS-induced ear inflammation in K14-VEGF-A mice; experiment: Contact hypersensitivity-induced ear inflammation in K14-VEGF-A mice; assay type: in vivo, mouse; conditions: day 15
From the text: A delayed-type hypersensitivity reaction was induced in the ear skin of female FVB mice that overexpress VEGF-A in the epidermis under control of the human keratin 14 promoter as previously described (Detmar et al., 1998; Kunstfeld et al., 2004; Xia et al., 2003). Heterozygous VEGF-A transgenic mice with no pre-existing inflammatory lesions were sensitized by topical application of a 2% oxazolone (4-ethoxymethylene-2-phenyl-2-oxazoline-5-one; Sigma) solution in acetone/olive oil (4:1 vol/vol) to the shaved abdomen (50 μl) and each paw (5 μl). Five days after sensitization, the ears were challenged by topical application of 20 μl of a 1% oxazolone solution. Therapy was started on day 7 and repeated at day 9, 11 and 13. […] Ear thickness was measured every other day and at day 15, mice were sacrificed and ear draining lymph nodes were weighted. The timeline for this experiment is illustrated in FIG. 13A. Each treatment event is indicated by an arrow.

[3] = target: T2, EDA in the pancreas of diabetic mice (Mus musculus, UniProt P11276); experiment: Immunofluorescence staining of pancreas of diabetic mice; conditions: antibodies in SIP format, 2 μg/ml
T2 construct: from tissue; host or cells: pancreas of streptozotocin-treated diabetic C57BL/6J mice (frozen sections)
T2 sequence (P11276 33-2477): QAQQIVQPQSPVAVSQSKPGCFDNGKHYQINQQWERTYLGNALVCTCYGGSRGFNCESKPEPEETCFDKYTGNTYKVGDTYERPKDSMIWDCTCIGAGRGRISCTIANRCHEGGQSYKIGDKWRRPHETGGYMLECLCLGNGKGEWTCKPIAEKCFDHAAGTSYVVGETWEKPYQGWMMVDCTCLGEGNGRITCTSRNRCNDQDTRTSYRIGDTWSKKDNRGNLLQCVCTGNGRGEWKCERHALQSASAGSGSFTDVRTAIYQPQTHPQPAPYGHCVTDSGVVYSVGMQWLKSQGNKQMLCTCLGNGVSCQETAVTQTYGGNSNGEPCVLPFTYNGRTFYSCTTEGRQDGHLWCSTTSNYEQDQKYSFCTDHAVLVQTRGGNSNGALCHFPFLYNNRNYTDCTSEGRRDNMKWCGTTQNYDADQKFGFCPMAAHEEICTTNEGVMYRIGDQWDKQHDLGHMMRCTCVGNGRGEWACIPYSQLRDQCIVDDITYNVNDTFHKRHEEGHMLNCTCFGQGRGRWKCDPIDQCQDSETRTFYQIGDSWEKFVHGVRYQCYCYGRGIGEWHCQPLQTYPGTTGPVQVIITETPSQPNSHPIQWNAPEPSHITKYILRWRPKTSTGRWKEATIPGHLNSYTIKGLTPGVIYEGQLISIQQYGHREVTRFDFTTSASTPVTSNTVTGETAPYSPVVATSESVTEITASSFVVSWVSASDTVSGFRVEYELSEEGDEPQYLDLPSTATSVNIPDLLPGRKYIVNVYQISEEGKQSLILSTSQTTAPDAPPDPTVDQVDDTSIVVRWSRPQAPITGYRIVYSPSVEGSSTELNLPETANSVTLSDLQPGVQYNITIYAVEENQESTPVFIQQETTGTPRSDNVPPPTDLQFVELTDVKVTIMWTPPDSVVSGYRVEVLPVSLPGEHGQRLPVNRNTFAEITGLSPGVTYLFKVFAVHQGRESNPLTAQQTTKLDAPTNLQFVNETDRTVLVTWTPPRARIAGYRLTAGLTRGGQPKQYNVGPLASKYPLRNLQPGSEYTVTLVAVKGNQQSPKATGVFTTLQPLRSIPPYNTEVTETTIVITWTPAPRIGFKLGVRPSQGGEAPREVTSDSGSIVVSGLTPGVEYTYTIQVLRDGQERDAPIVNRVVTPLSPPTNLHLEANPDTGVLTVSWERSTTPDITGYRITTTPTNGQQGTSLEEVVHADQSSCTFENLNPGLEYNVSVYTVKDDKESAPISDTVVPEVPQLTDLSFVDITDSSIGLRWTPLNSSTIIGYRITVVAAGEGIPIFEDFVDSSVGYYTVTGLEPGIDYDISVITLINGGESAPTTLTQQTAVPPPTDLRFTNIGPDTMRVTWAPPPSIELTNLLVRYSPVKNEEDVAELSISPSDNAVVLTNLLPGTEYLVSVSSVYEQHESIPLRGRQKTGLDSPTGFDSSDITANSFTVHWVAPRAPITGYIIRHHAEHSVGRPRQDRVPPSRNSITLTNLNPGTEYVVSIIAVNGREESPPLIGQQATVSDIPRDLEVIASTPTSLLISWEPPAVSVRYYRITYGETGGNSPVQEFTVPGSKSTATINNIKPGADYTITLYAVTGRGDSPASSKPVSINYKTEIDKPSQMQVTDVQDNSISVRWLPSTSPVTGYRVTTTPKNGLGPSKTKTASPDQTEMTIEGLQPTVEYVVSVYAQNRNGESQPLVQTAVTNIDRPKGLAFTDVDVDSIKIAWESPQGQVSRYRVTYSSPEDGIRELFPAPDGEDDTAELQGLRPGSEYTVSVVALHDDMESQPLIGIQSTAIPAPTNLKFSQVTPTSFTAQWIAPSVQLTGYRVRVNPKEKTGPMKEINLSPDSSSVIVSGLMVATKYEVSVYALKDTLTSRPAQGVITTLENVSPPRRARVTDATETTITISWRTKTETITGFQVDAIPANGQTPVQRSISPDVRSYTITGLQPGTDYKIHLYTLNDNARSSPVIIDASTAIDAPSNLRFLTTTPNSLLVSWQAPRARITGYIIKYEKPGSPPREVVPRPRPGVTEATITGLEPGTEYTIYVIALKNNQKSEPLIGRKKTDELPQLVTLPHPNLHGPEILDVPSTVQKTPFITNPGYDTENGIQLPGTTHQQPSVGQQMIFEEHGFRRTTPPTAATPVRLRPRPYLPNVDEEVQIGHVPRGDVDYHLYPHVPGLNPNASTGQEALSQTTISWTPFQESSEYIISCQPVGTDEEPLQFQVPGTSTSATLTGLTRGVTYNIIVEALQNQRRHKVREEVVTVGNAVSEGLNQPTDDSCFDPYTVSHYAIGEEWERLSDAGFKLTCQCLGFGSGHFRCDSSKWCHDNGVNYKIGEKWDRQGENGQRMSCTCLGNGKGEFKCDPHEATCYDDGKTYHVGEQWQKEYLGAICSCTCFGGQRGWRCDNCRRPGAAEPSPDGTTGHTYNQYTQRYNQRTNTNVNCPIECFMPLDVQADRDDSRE
Procedure: Type 1 diabetes is an autoimmune disease characterized by progressive destruction of pancreatic beta-cells. IL4 has been previously proposed as a potential medicament for preventing diabetes mellitus type 1 (Walz et al. 2002). Six week old C57BL/6J male mice were treated for 5 consecutive days with Streptozotocin (50 mg/kg by intraperitoneal [i.p.] injection). Blood glucose levels were recorded daily and mice were deemed diabetic if their non-fasted blood glucose levels were >300-400 mg/decilitre (dL). Pancreatic tissue was collected from the diabetic mice and snap frozen before cutting and staining. The staining procedure was performed according to the method set out in Pfaffen et al., Eur. J. Nucl. Med. Mol. Imaging (2010). Briefly, purified antibodies in SIP format (2 μg/ml), including antibody F8 (SEQ ID NO: 69), were added onto the sections and detected with a rabbit […] antibody (Dako). A further incubation with the fluorescently labelled goat anti-rabbit IgG Alexa Fluor 488 antibody (Life Technologies) was performed prior to imaging. Blood vessels and cell nuclei were detected using a rat anti-mouse CD31 antibody (BD Bioscience) followed incubation with a donkey anti-rat Alexa 594 antibody (Life Technologies), and DAPI, respectively. The filled white arrows in FIG. 19 indicate CD31^+ blood vessels. […]

Row | Molecule | inhibition of TNF induced killing of mouse fibroblasts (TNF) | ear draining lymph nodes (weight) [1] | ear draining lymph nodes (weight) [2] | colocalization of staining with CD31+ blood vessels [3]
1 | B1 | inhibits TNF induced killing of mouse fibroblasts | smaller | smaller | 
2 | B2 |  |  |  | colocalization of EDA and CD31 in the pancreas of diabetic mice
